B1: 人源化抗体ID 4 (antibody, human IgG4 S228P, kappa, V domains shown)
VH: QVQLVQSGAEVKKPGASVKVSCKASGYTFTSYWMNWVRQAPGQGLEWMGRIDSSDSETHYNQKFKDRVTMTRDTSTSTVYMELSSLRSEDTAVYYCARQGEGLRRSWFPYWGQGTLVTVSS
VL: DIVMTQSPDSLAVSLGERATINCRASKSVSTSGYSYIHWYQQKPGQPPKLLIYVASNLQSGVPDRFSGSGSGTDFTLTISSLQAEDVAVYYCQHIRELPWTFGQGTKVEIKR
B2: 单克隆抗体ID 1 (phage粗培液, phage-displayed) (antibody, V domains shown)
VH: QVQLQQPGAELVKPGAPVKLSCKASGYTFTSYWMNWVKQRPGRGLEWIGRIDSSDSETHYNQKFKDKATLTVDKSSSTAYIQLSSLTSEDSAVYYCARQGEGLRRSWFPYWGQGTLVIVSA
VL: DIVLTQSPASLAVSLGQRATISCRASKSVSTSGYSYIHWYQQKPGQPPKLLIYVASNLQSGVPARFSGSGSGTDFTLNIHPVEEEDAATYYCQHIRELPWTFGGGTKLEIK

Key:
[1] = target: 人源CD47 (on cells: hCD47-overexpressing CHO-K1; Raji) (human) (UniProt Q08722); assay: flow cytometry on Raji cells (endogenous human CD47); Blank 58.3
[2] = target: 人源CD47 (on cells: hCD47-overexpressing CHO-K1; Raji) (human) (UniProt Q08722); assay: flow cytometry, purified antibody 10 ug/ml on CHO-K1 overexpressing human CD47
[3] = target: 食蟹猴CD47 (on overexpressing CHO-K1 cells) (cynomolgus monkey); assay: flow cytometry, purified antibody 10 ug/ml on CHO-K1 overexpressing cynomolgus CD47
[4] = target: 人源CD47 (on cells: hCD47-overexpressing CHO-K1; Raji) (human) (UniProt Q08722); assay: flow cytometry, phage supernatant; MFI on human CD47 CHO-K1 over MFI on wild-type CHO-K1
[5] = target: 生物素化人源CD47蛋白 (购自Acro Biosystem) (human) (UniProt Q08722); assay: phage ELISA; biotinylated human CD47 on streptavidin plate; ratio of experiment to control
[6] = target: 生物素化人源CD47蛋白 (购自Acro Biosystem) (human) (UniProt Q08722); assay: phage ELISA; biotinylated human CD47 on streptavidin plate, phage supernatant, HRP anti-M13
[7] = target: 食蟹猴CD47 (on overexpressing CHO-K1 cells) (cynomolgus monkey); assay: flow cytometry, phage supernatant; MFI on cynomolgus CD47 CHO-K1 over MFI on wild-type CHO-K1
[8] = target: 人源CD47 (on cells: hCD47-overexpressing CHO-K1; Raji) (human) (UniProt Q08722); assay: flow cytometry, phage supernatant on CHO-K1 overexpressing human CD47, anti-M13 then fluorescent secondary
[9] = target: 食蟹猴CD47 (on overexpressing CHO-K1 cells) (cynomolgus monkey); assay: flow cytometry, phage supernatant on CHO-K1 overexpressing cynomolgus CD47, anti-M13 then fluorescent secondary

Row | Binder | MFI [1] | MFI [2] | MFI [3] | h-CHOK1/CHOK1 (MFI ratio to wild-type CHO-K1) [4] | 实验/对照 (OD450 ratio) [5] | OD450 (实验) [6] | c-CHOK1/CHOK1 (MFI ratio to wild-type CHO-K1) [7] | MFI [8] | MFI [9]
1 | B1 | 14200 MFI | 2040 MFI | 786 MFI |  |  |  |  |  | 
2 | B2 |  |  |  | 13.4 | 50.6 | 2.84 OD450 | 10.7 | 18300 MFI | 14600 MFI

Reference: CN116478288A
